# Experiments:
# CRF-BP(FL)_CRFR2 chimera = target: T1, CRF-BP(FL)_CRFR2 chimera (Homo sapiens, UniProt P24387+Q13324); experiment: FLIPR intracellular calcium release, agonist mode, HEK 293 cells expressing full-length CRF-BP_CRFR2 chimera; format: cell-based
# T1 construct: DNA encoding the CRFR2 protein was amplified using the ssHA CRFR2_Zeo plasmid DNA template; FLAG (N); expressed in transfected cells
# T1 sequence (P24387+Q13324 with tags, fused parts or gaps): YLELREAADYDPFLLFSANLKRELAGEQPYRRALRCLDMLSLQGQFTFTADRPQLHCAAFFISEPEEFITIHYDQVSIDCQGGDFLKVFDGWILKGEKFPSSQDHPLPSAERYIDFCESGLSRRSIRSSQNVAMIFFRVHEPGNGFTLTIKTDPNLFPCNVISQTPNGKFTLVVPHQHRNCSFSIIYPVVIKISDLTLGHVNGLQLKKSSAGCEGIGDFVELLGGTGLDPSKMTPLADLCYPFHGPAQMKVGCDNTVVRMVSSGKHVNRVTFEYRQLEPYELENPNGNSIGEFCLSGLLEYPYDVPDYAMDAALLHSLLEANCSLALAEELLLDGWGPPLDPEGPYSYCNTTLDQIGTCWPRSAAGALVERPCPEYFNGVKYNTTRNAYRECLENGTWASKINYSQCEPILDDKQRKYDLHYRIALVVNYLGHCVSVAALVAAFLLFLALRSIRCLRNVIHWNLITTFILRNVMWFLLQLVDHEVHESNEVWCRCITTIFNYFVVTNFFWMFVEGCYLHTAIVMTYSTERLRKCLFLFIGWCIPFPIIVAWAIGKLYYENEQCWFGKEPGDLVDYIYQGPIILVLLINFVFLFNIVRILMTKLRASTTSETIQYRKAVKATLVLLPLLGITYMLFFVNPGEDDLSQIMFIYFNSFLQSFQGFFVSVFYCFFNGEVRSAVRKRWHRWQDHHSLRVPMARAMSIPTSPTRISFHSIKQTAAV
# Method: (§1) The mammalian cells expressing the isolated chimera constructs were tested for the ability of the chimera proteins to activate intracellular calcium release via signaling through Gq. HEK 293 cells of Example 2 expressing the constructs of Example 1 were grown in 10% FBS in DMEM cell media with hygromycin (0.4%) selection reagent. Cells were plated out in 96-well plates (40 000 cells/well) in FBS/DMEM media. On the following day, cells were serum starved (1% FBS in DMEM; 100 μl/well) for 2 hours prior to testing.
# (§2) Cells were loaded with diluted FLIPR™ dye (100 μl) for one hour prior to testing with CRF. The selected hygromycin resistant cells were plated in 96-well clear bottom black microplates at a density of approximately 40,000 cells/well, in DMEM/10% FBS media. […]
# (§3) A FlexStation (Molecular Devices) fluorometric imaging plate reader was used to measure changes in intracellular Ca^2+. […] The machine was used in Flex mode, and the fluorescent intensity was measured from the bottom with the excitation at 485 nm and emission at 525 nm for 120 seconds at 21° C.
# The results of the FLIPR experiments detecting the levels of intracellular calcium induced by activation of the chimera with CRF are shown in FIGS. 3-5. […] Results are expressed as the mean (±SEM) relative fluorescent units (RFU), calculated as agonist-induced maximum Ca^2+ peak/cell number×1000.
# CRF-BP_NK1R chimera = target: T2, CRF-BP_NK1R chimera (Homo sapiens, UniProt P24387+P25103); experiment: FLIPR intracellular calcium release, HEK-293 cells expressing CRF-BP_NK1R chimera; format: cell-based; conditions: 1 pM-10 μM, FIGS. 9, 10
# T2 construct: the construct used to create a CRF-BP(FL)_NK1R chimera; FLAG (N); expressed in transfected cells
# Method: The mammalian cells expressing the various isolated chimera constructs were tested for the ability of the chimera proteins to activate intracellular calcium release. The HEK-293 cells of Example 5 expressing the constructs of Example 4 were grown in 10% FBS in DMEM cell media with hygromycin (0.4%) as a selection reagent. Cells were plated out in 96-well plates (40 000 cells/well) in FBS/DMEM media. On the following day, cells were serum starved (1% FBS in DMEM; 100 μl/well) for 2 hours prior to testing.
# [1] = target: T3, CRF-BP(10 Kd)_CRFR2 chimera (Homo sapiens, UniProt P24387+Q13324); experiment: FLIPR intracellular calcium release, HEK 293 cells expressing CRF-BP(10 Kd)_CRFR2 chimera; format: cell-based
# T3 construct: The CRF-BP (10 Kd) fragment is comprised of 88 amino acid residues (A235 to L322); DNA encoding the CRFR2 protein was amplified using the ssHA CRFR2_Zeo plasmid DNA template; FLAG (N); expressed in transfected cells
# T3 sequence (P24387+Q13324 with tags, fused parts or gaps): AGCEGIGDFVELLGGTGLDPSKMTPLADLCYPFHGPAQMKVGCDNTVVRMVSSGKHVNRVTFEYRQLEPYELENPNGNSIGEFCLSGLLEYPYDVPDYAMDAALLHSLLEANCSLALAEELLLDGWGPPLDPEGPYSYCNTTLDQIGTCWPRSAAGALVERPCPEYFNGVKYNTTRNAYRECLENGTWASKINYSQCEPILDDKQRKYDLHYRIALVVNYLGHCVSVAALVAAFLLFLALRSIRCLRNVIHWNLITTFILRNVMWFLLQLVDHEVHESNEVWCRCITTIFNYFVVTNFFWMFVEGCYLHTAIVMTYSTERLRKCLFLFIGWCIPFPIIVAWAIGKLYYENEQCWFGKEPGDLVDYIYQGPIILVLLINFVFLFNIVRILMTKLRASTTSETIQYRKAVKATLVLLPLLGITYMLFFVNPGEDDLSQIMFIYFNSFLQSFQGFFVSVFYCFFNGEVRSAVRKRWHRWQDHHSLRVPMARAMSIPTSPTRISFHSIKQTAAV
# Method: as §1, §2, §3
# Results are expressed as the mean (±SEM) relative fluorescent units (RFUs), calculated as agonist-induced maximum Ca^2+ peak/cell number×1000.
# [2] = tested on: untransfected HEK 293 cells; experiment: Negative control calcium release, HEK 293 cells not transfected; format: cell-based, human; conditions: FIG. 7
# Method: (§4) As a negative control, the effect of CRF on HEK 293 cells that had not been transfected or which expressed a recombinant dopamine receptor was measured.
# IGF-BP2_CRFR chimera = experiment: FLIPR intracellular calcium release, HEK-293 cells expressing IGF-BP2_CRFR2 chimera; format: cell-based, human; conditions: CRF 1 pM-10 μM, FIG. 13
# Method: The mammalian cells expressing the various isolated chimera constructs were tested for the ability of the chimera proteins to activate intracellular calcium release. The HEK-293 cells expressing the constructs of Example 9 were grown in 10% FBS in DMEM cell media with hygromycin (0.4%) selection reagent. The cells were plated out in 96-well plates (40 000 cells/well) in FBS/DMEM media. On the following day, cells were serum starved (1% FBS in DMEM; 100 μl/well) for 2 hours prior to testing.
# The cells were loaded with diluted FLIPR™ dye (100 μl) for one hour prior to testing with CRF. The selected hygromycin resistant cells were plated in 96-well clear bottom black microplates at a density of approximately 40,000 cells/well, in DMEM/10% FBS media. […]
# as §3
# The results of the FLIPR experiments detecting the levels of intracellular calcium induced by activation of the chimeras with CRF are shown in FIG. 13. […] Results are expressed as the mean (±SEM) relative fluorescence units (RFU), calculated as agonist-induced maximum Ca^2+ peak/cell number×1000.
# [3] = tested on: recombinant dopamine receptor; experiment: Negative control calcium release, HEK 293 cells expressing a recombinant dopamine receptor; format: cell-based; conditions: HEK 293 cells expressing recombinant dopamine receptor; FIG. 7
# Method: as §4
# [4] = CRF, intracellular calcium release
# T2 sequence (P24387+P25103 fused, change not shown): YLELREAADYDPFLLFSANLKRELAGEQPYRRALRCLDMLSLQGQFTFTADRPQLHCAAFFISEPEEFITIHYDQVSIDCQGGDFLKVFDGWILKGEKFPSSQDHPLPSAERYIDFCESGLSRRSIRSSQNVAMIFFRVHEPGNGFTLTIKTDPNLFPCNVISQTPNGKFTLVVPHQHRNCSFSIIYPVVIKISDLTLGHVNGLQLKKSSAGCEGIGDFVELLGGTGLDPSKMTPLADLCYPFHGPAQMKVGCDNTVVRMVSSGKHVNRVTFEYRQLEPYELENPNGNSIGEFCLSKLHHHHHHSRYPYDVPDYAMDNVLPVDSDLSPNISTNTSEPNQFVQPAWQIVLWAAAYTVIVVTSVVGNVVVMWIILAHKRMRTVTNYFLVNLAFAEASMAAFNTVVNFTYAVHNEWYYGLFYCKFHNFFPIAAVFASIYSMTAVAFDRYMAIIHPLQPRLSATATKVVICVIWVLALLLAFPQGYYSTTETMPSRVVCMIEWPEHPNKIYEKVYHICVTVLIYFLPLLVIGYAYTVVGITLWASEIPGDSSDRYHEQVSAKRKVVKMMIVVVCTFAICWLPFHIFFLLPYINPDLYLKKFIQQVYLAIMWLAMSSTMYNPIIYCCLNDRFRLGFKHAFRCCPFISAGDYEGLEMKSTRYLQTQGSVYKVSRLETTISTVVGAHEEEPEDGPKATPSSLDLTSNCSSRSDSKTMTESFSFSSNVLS
substance,measurement,setting,value
Corticotropin Releasing Factor [CRF],"intracellular calcium release (agonist-induced maximum Ca2+ peak, RFU)","CRF-BP(FL)_CRFR2 chimera; 1 pM-10 μM, HEK 293 cells, FIGS. 3-5",increased as the concentration of CRF was increased
same,signaling through the chimera compared with CRFR2 alone,CRF-BP(FL)_CRFR2 chimera; [4],more effectively than CRF at CRFR2 alone
same,intracellular calcium release (RFU),CRF-BP_NK1R chimera,different levels of CRF-induced (1 pM-10 μM) intracellular calcium release in the HEK-293 cells corresponding to the concentration of CRF
same,intracellular calcium release (RFU),"[1]; CRF 1 pM-10 μM, compared with full-length chimera, FIG. 6",even more robust signaling than the full-length CRF-BP_CRFR2 chimera
same,signaling through the chimera compared with CRFR2 alone,[1]; [4],more effectively than CRF at CRFR2 alone
same,intracellular calcium signaling,[2],did not display any significant signaling
same,intracellular calcium release (RFU),IGF-BP2_CRFR chimera,different levels of CRF-induced (1 pM-10 μM) intracellular calcium release in the HEK-293 cells corresponding to the concentration of CRF
same,intracellular calcium signaling,[3],did not display any significant signaling
